According to IntAct's records for PubMed 31515488:

B1: Isoform 1 of Zinc finger protein 18 (Homo sapiens), P17022-1 (parent)
chain: MPVDLGQALGLLPSLAKAEDSQFSESDAALQEELSSPETARQLFRQFRYQVMSGPHETLKQLRKLCFQWLQPEVHTKEQILEILMLEQFLTILPGEIQMWVRKQCPGSGEEAVTLVESLKGDPQRLWQWISIQVLGQDILSEKMESPSCQVGEVEPHLEVVPQELGLENSSSGPGELLSHIVKEESDTEAELALAASQPARLEERLIRDQDLGASLLPAAPQEQWRQLDSTQKEQYWDLMLETYGKMVSGAGISHPKSDLTNSIEFGEELAGIYLHVNEKIPRPTCIGDRQENDKENLNLENHRDQELLHASCQASGEVPSQASLRGFFTEDEPGCFGEGENLPEALQNIQDEGTGEQLSPQERISEKQLGQHLPNPHSGEMSTMWLEEKRETSQKGQPRAPMAQKLPTCRECGKTFYRNSQLIFHQRTHTGETYFQCTICKKAFLRSSDFVKHQRTHTGEKPCKCDYCGKGFSDFSGLRHHEKIHTGEKPYKCPICEKSFIQRSNFNRHQRVHTGEKPYKCSHCGKSFSWSSSLDKHQRSHLGKKPFQ
B2: Tuftelin-interacting protein 11 (Homo sapiens), Q9UBB9 (parent)
chain: MSLSHLYRDGEGRIDDDDDERENFEITDWDLQNEFNPNRQRHWQTKEEATYGVWAERDSDDERPSFGGKRARDYSAPVNFISAGLKKGAAEEAELEDSDDEEKPVKQDDFPKDFGPRKLKTGGNFKPSQKGFAGGTKSFMDFGSWERHTKGIGQKLLQKMGYVPGRGLGKNAQGIINPIEAKQRKGKGAVGAYGSERTTQSMQDFPVVDSEEEAEEEFQKELSQWRKDPSGSKKKPKYSYKTVEELKAKGRISKKLTAPQKELSQVKVIDMTGREQKVYYSYSQISHKHNVPDDGLPLQSQQLPQSGKEAKAPGFALPELEHNLQLLIDLTEQEIIQNDRQLQYERDMVVNLFHELEKMTEVLDHEERVISNLSKVLEMVEECERRMQPDCSNPLTLDECARIFETLQDKYYEEYRMSDRVDLAVAIVYPLMKEYFKEWDPLKDCTYGTEIISKWKSLLENDQLLSHGGQDLSADAFHRLIWEVWMPFVRNIVTQWQPRNCDPMVDFLDSWVHIIPVWILDNILDQLIFPKLQKEVENWNPLTDTVPIHSWIHPWLPLMQARLEPLYSPIRSKLSSALQKWHPSDSSAKLILQPWKDVFTPGSWEAFMVKNIVPKLGMCLGELVINPHQQHMDAFYWVIDWEGMISVSSLVGLLEKHFFPKWLQVLCSWLSNSPNYEEITKWYLGWKSMFSDQVLAHPSVKDKFNEALDIMNRAVSSNVGAYMQPGARENIAYLTHTERRKDFQYEAMQERREAENMAQRGIGVAASSVPMNFKDLIETKAEEHNIVFMPVIGKRHEGKQLYTFGRIVIYIDRGVVFVQGEKTWVPTSLQSLIDMAK
B3: Break repair meiotic recombinase recruitment factor 1 (Homo sapiens), Q0VDD7 (parent)
chain: MTKRKKLRTSGEGLCPPKPLKNPRLGDFYGDPQSSMLGCLHHPEEPEGKLGPVPSTQQHGEEPGKAVSSSPDEETGSPCRLLRQPEKEPAPLPPSQNSFGRFVPQFAKSRKTVTRKEEMKDEDRGSGAFSLETIAESSAQSPGCQLLVETLGVPLQEATELGDPTQADSARPEQSSQSPVQAVPGSGDSQPDDPPDRGTGLSASQRASQDHLSEQGADDSKPETDRVPGDGGQKEHLPSIDSEGEKPDRGAPQEGGAQRTAGAGLPGGPQEEGDGVPCTPASAPTSGPAPGLGPASWCLEPGSVAQGSPDPQQTPSRMGREGEGTHSSLGCSSLGMVVIADLSTDPTELEERALEVAGPDGQASAISPASPRRKAADGGHRRALPGCTSLTGETTGESGEAGQDGKPPGDVLVGPTASLALAPGSGESMMGAGDSGHASPDTGPCVNQKQEPGPAQEEAELGGQNLERDLEGFRVSPQASVVLEHREIADDPLQEPGAQQGIPDTTSELAGQRDHLPHSADQGTWADSLAVELDFLLDSQIQDALDASDFEAPPEQLFPSGNKPGPCWPGPSSHANGDPVAVAKAQPRTFVGIQASEASRMEDATNVVRGLIVELSNLNRLIMGTHRDLEAFKRLNYRKTKLGGKAPLPYPSKGPGNIPRGDPPWREL
partner: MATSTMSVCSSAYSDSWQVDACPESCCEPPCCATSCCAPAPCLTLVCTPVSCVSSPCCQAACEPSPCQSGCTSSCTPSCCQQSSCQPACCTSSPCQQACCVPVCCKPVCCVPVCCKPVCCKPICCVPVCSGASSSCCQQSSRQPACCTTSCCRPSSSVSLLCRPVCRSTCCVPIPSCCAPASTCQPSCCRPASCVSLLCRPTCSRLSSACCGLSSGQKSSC

Variants of: B1
Settings: with ttc32_human TTC32, Q5I0X7
Sequence of ttc32_human TTC32, Q5I0X7 (Q5I0X7 whole entry): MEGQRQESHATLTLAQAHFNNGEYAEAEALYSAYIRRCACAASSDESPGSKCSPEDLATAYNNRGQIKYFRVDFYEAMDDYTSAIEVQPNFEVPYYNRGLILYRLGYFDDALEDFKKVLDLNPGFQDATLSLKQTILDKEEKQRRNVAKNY

| effect of a mutation on the interaction | Variant |
| --- | --- |
| with no effect | MPVDLGQALGLLPSLAKAEDSQFSESDAALQEELSSPETARQLFRQFRYQVMSGPHETLKQLRKLCFQWLQPEVHTKEQILEILMLEQFLTILPGEIQMWVRKQCPGSGEEAVTLVESLKGDPQRLWQWISIQVLGQDILSEKMESPSCQVGEVEPHLEVVPQELGLENSSSGPGELLSHIVKEESDTEAELALAASQPARLEERLIRDQDLGASLLPAAPQEQWRQLDSTQKEQYWDLMLETYGKMVSGAGISHPKSDLTNSIEFGEELAGIYLHVNEKIPRPTCIGDRQENDKENLNLENHRDQELLHASCQASGEVPSQASLRGFFTEDEPGCFGEGENLPEALQNIQDEGTGEQLSPQERISEKQLGQHLPNPHSGEMSTMWFEEKRETSQKGQPRAPMAQKLPTCRECGKTFYRNSQLIFHQRTHTGETYFQCTICKKAFLRSSDFVKHQRTHTGEKPCKCDYCGKGFSDFSGLRHHEKIHTGEKPYKCPICEKSFIQRSNFNRHQRVHTGEKPYKCSHCGKSFSWSSSLDKHQRSHLGKKPFQ [L387F] |

Variants of: B1
Settings: with ccnc_human CCNC

| effect of a mutation on the interaction | Variant |
| --- | --- |
| with no effect | MPVDLGQALGLLPSLAKAEDSQFSESDAALQEELSSPETARQLFRQFRYQVMSGPHETLKQLRKLCFQWLQPEVHTKEQILEILMLEQFLTILPGEIQMWVRKQCPGSGEEAVTLVESLKGDPQRLWQWISIQVLGQDILSEKMESPSCQVGEVEPHLEVVPQELGLENSSSGPGELLSHIVKEESDTEAELALAASQPARLEERLIRDQDLGASLLPAAPQEQWRQLDSTQKEQYWDLMLETYGKMVSGAGISHPKSDLTNSIEFGEELAGIYLHVNEKIPRPTCIGDRQENDKENLNLENHRDQELLHASCQASGEVPSQASLRGFFTEDEPGCFGEGENLPEALQNIQDEGTGEQLSPQERISEKQLGQHLPNPHSGEMSTMWFEEKRETSQKGQPRAPMAQKLPTCRECGKTFYRNSQLIFHQRTHTGETYFQCTICKKAFLRSSDFVKHQRTHTGEKPCKCDYCGKGFSDFSGLRHHEKIHTGEKPYKCPICEKSFIQRSNFNRHQRVHTGEKPYKCSHCGKSFSWSSSLDKHQRSHLGKKPFQ [L387F] |

Variants of: B2
Settings: with lca5l_human LCA5L

| effect of a mutation on the interaction | Variant |
| --- | --- |
| with no effect | M140V |

Variants of: B2
Settings: with ccnd3_human CCND3, P30281
Sequence of ccnd3_human CCND3, P30281 (P30281 whole entry): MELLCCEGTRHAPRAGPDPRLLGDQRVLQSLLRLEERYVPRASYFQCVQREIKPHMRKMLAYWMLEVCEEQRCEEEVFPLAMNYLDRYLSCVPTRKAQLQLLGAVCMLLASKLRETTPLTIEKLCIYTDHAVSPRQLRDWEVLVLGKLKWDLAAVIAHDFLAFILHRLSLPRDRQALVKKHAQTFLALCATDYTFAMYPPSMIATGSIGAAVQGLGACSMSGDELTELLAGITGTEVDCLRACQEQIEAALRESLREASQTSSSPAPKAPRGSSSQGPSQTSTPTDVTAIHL

| effect of a mutation on the interaction | Variant |
| --- | --- |
| with no effect | M140V |

Variants of: B2
Settings: with cenpu_human CENPU

| effect of a mutation on the interaction | Variant |
| --- | --- |
| with no effect | M140V |

Variants of: B3
Settings: with kr103_human KRTAP10-3, P60369

| effect of a mutation on the interaction | Variant |
| --- | --- |
| with no effect | L155F |
| with no effect | N576S |
| with no effect | G267R |
| with no effect | Q500R |
